Assay results taken from the supplement of paper PMC9112550, “Optimization of the antimicrobial peptide Bac7 by deep mutational scanning” (BMC Biology, 2022).

tested on: Escherichia coli TOP10; test: shrunken log2 fold change of peptide-encoding DNA abundance (4.5 h post-induction vs induction); higher = less antimicrobial activity (less host growth inhibition); settings: time post-induction: 4.5 h; library: site-saturation at positions 5, 18, 19, 20
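Also: peptides expressed intracellularly from a pBAD plasmid library in pooled LB shake-flask culture, induced with 0.3% L-arabinose, DNA abundance read by NGS, three biological replicates, DESeq2 with apeglm shrinkage.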

RRIRARPPRLPRPRPRPIPHPRP and RRIRNRPPRLPRPRPRPDYEPRP are within 0.2 log units of each other in “shrunken log2 fold change” value: 0.0126 for the first, -0.00884 for the second.

RRIRSRPPRLPRPRPRPQNDPRP and RRIRMRPPRLPRPRPRPCWHPRP are within 0.2 log units of each other in “shrunken log2 fold change” value: -0.13 for the first, -0.0624 for the second.

Compared with RRIRKRPPRLPRPRPRPSNGPRP, RRIRPRPPRLPRPRPRPTGPPRP is higher in “shrunken log2 fold change” value: -0.00174 for the first, 0.212 for the second.

Going from RRIRNRPPRLPRPRPRPNQMPRP to RRIRDRPPRLPRPRPRPFCSPRP, the “shrunken log2 fold change” value rises from -0.153 to 0.217.

First: RRIRCRPPRLPRPRPRPIYLPRP
Second: RRIRQRPPRLPRPRPRPICCPRP
The “shrunken log2 fold change” value of the first is lower: -0.457 for the first, 0.259 for the second.

Going from RRIRSRPPRLPRPRPRPLGQPRP to RRIRKRPPRLPRPRPRPAQTPRP, the “shrunken log2 fold change” value rises from -0.0571 to 0.246.

RRIRYRPPRLPRPRPRPGFAPRP and RRIRLRPPRLPRPRPRPRKHPRP are within 0.2 log units of each other in “shrunken log2 fold change” value: -0.00507 for the first, -0.0984 for the second.

First: RRIRTRPPRLPRPRPRPAMGPRP
Second: RRIRVRPPRLPRPRPRPERDPRP
The “shrunken log2 fold change” value of the first is higher: 0.391 for the first, -0.15 for the second.

First: RRIRFRPPRLPRPRPRPCIFPRP
Second: RRIRNRPPRLPRPRPRPEVPPRP
The “shrunken log2 fold change” value of the first is lower: -0.361 for the first, 0.095 for the second.

Going from RRIRLRPPRLPRPRPRPQIFPRP to RRIRYRPPRLPRPRPRPNKVPRP, the “shrunken log2 fold change” value falls from -0.165 to -0.596.

RRIRNRPPRLPRPRPRPTSDPRP and RRIRSRPPRLPRPRPRPDIAPRP are within 0.2 log units of each other in “shrunken log2 fold change” value: -0.148 for the first, -0.0218 for the second.

RRIRDRPPRLPRPRPRPIDLPRP and RRIRWRPPRLPRPRPRPWFEPRP are within 0.2 log units of each other in “shrunken log2 fold change” value: -0.0817 for the first, -0.0354 for the second.

RRIRWRPPRLPRPRPRPNFMPRP and RRIRTRPPRLPRPRPRPSRFPRP are within 0.2 log units of each other in “shrunken log2 fold change” value: 0.0497 for the first, 0.244 for the second.

Compared with RRIRRRPPRLPRPRPRPMMHPRP, RRIRGRPPRLPRPRPRPQPAPRP is higher in “shrunken log2 fold change” value: 0.101 for the first, 0.833 for the second.

RRIRRRPPRLPRPRPRPLERPRP and RRIRERPPRLPRPRPRPPLEPRP are within 0.2 log units of each other in “shrunken log2 fold change” value: 0.0981 for the first, 0.161 for the second.

Compared with RRIRTRPPRLPRPRPRPGQLPRP, RRIRIRPPRLPRPRPRPPCNPRP is lower in “shrunken log2 fold change” value: 0.226 for the first, -0.449 for the second.

RRIRNRPPRLPRPRPRPPDVPRP and RRIRYRPPRLPRPRPRPAWCPRP are within 0.2 log units of each other in “shrunken log2 fold change” value: -0.14 for the first, -0.0756 for the second.

Going from RRIRMRPPRLPRPRPRPWLCPRP to RRIRERPPRLPRPRPRPLSNPRP, the “shrunken log2 fold change” value falls from 0.219 to 0.0169.

Compared with RRIRTRPPRLPRPRPRPFPYPRP, RRIRARPPRLPRPRPRPVYAPRP is higher in “shrunken log2 fold change” value: -0.00797 for the first, 0.205 for the second.

Compared with RRIRMRPPRLPRPRPRPWIMPRP, RRIRCRPPRLPRPRPRPCFSPRP is lower in “shrunken log2 fold change” value: 0.00173 for the first, -0.344 for the second.

Compared with RRIRDRPPRLPRPRPRPMPRPRP, RRIRKRPPRLPRPRPRPGNSPRP is lower in “shrunken log2 fold change” value: 0.26 for the first, -0.0266 for the second.

RRIRDRPPRLPRPRPRPCTRPRP and RRIRYRPPRLPRPRPRPRKKPRP are within 0.2 log units of each other in “shrunken log2 fold change” value: 0.0736 for the first, -0.0257 for the second.

First: RRIRNRPPRLPRPRPRPYSFPRP
Second: RRIRERPPRLPRPRPRPDPHPRP
The “shrunken log2 fold change” value of the first is lower: -1.01 for the first, -0.011 for the second.

Going from RRIRPRPPRLPRPRPRPGRTPRP to RRIRVRPPRLPRPRPRPLLIPRP, the “shrunken log2 fold change” value falls from 0.153 to -0.304.

RRIRWRPPRLPRPRPRPENDPRP and RRIRMRPPRLPRPRPRPQAFPRP are within 0.2 log units of each other in “shrunken log2 fold change” value: -0.0396 for the first, 0.0522 for the second.

Compared with RRIRKRPPRLPRPRPRPEPCPRP, RRIRPRPPRLPRPRPRPARSPRP is higher in “shrunken log2 fold change” value: 0.0397 for the first, 0.315 for the second.

RRIRPRPPRLPRPRPRPCNAPRP and RRIRLRPPRLPRPRPRPRLNPRP are within 0.2 log units of each other in “shrunken log2 fold change” value: -0.179 for the first, -0.0854 for the second.

RRIRVRPPRLPRPRPRPQMVPRP and RRIRPRPPRLPRPRPRPKWTPRP are within 0.2 log units of each other in “shrunken log2 fold change” value: 0.0123 for the first, -0.0336 for the second.

Going from RRIRCRPPRLPRPRPRPGSIPRP to RRIRTRPPRLPRPRPRPYQQPRP, the “shrunken log2 fold change” value rises from -0.311 to 0.0675.

First: RRIRIRPPRLPRPRPRPPAKPRP
Second: RRIRPRPPRLPRPRPRPWFSPRP
The “shrunken log2 fold change” value of the first is higher: 0.309 for the first, -0.255 for the second.
